Like-named read-outs stand apart in the source and are kept apart here. Bridges are numbered along the chain shown (N, C = ends). Where no end group is shown, it is not given here.

Experiment [1] has as its target T1, rat albumin (rat, UniProt P02770 25-608).
T1 construct: bought (Sigma); also called rat SA; RSA
The experiment in a line: SA08b competition ELISA.

The target of experiment [2] is T2, rabbit albumin (rabbit, UniProt P49065 25-608).
T2 construct: bought (Sigma); also called rabbit SA; BuSA
The experiment in a line: SA08b competition ELISA.

Experiment [3] addresses T3, mouse albumin (mouse, UniProt P07724 25-608).
T3 construct: bought (Sigma); also called MSA; MuSA
The experiment in a line: SA08b competition ELISA. A general note: In an ELISA, binding on a coated surface is turned into a signal by an enzyme label.

Experiment [4] addresses T2, rabbit albumin. The experiment can be described thus: SA08b competition ELISA. The source holds these as a separate data set.
In experiment [5] the target is T2, rabbit albumin. The experiment can be described thus: SA08b competition ELISA. The source holds these as a separate data set.
Experiment [6] addresses T2, rabbit albumin. The experiment can be described thus: SA08b peptide competition ELISA.
Experiment [7] concerns the target T3, mouse albumin. The experiment can be described thus: SA08b peptide competition ELISA.
Experiment [8] addresses T2, rabbit albumin. The experiment in a line: SPR (BIAcore), albumin immobilized. The text has this: (§1) Binding affinities between SA peptides and album were obtained using a BIAcore 3000 (BIAcore, Inc., Piscataway, N.J.). Albumin was captured in a CM5 chip using amine coupling at approximately 5000 resonance units (RU).
(§2) The signal from an injection passing over an uncoupled cell was subtracted from that of an immobilized cell to generate sensongrams corresponding to the amount of peptide bound as a function of time. The running buffer, PBS containing 0.05% TWEEN-20T, was used for all sample dilutions. BIAcore kinetic evaluation software (v 3.1) was used to determine the dissociation constant (Kd) from the association and dissociation rates, using a one to one binding model.
Background: In SPR one partner is held on a chip, and binding of the other changes the refractive index at the surface.

Experiment [9] concerns the target T1, rat albumin. The experiment in a line: SPR (BIAcore), albumin immobilized.
Source text: as §1, §2

Experiment [10] concerns the target T1, rat albumin. The experiment in a line: SA08b competition ELISA. This is another data set of the same source.
In experiment [11] the target is T2, rabbit albumin. The experiment in a line: SA08b competition ELISA. The source holds these as a separate data set.
Experiment [12] deals with T3, mouse albumin. The experiment in a line: SA08b competition ELISA. The source holds these as a separate data set.
Experiment [13] concerns the target T4, human albumin (human, UniProt P02768 25-609).
T4 construct: bought (Sigma); also called human SA; HuSA
The experiment can be described thus: SPR (BIAcore), albumin immobilized.
Source text: as §1, §2

Experiment [14] deals with T1, rat albumin. The experiment in a line: phage ELISA.

T1 sequence (P02770 25-608 limits assumed): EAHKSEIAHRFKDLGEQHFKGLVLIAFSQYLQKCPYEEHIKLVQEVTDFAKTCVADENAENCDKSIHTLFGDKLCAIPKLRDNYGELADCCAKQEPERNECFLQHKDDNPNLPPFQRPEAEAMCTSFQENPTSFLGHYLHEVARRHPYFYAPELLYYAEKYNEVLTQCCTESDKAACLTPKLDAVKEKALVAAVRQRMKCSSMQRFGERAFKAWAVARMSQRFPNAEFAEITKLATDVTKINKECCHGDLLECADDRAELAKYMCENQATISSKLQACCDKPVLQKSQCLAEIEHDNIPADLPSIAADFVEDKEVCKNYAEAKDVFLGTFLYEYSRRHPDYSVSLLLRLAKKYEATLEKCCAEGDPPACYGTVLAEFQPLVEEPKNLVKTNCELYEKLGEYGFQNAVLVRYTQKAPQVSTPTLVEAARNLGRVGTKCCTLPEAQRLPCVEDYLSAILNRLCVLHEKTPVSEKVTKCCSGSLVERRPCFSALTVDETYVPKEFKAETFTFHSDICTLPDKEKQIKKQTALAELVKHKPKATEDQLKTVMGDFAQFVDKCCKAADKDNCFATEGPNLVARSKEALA
T3 sequence (P07724 25-608 limits assumed): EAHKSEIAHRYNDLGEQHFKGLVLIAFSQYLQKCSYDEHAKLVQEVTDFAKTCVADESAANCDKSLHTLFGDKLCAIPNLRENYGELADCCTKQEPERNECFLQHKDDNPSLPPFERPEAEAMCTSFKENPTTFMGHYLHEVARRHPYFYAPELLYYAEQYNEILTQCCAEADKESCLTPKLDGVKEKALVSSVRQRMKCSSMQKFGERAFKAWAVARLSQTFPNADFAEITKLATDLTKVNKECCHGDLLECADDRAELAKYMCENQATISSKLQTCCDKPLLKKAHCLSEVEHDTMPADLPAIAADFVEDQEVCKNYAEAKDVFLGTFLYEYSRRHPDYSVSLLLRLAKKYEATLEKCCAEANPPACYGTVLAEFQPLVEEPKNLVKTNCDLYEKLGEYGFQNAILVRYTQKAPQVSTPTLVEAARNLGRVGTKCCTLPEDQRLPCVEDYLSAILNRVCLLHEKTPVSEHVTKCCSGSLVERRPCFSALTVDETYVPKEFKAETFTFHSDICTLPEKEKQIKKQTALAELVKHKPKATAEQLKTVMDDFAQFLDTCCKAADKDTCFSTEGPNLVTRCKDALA
T2 sequence (P49065 25-608 limits assumed): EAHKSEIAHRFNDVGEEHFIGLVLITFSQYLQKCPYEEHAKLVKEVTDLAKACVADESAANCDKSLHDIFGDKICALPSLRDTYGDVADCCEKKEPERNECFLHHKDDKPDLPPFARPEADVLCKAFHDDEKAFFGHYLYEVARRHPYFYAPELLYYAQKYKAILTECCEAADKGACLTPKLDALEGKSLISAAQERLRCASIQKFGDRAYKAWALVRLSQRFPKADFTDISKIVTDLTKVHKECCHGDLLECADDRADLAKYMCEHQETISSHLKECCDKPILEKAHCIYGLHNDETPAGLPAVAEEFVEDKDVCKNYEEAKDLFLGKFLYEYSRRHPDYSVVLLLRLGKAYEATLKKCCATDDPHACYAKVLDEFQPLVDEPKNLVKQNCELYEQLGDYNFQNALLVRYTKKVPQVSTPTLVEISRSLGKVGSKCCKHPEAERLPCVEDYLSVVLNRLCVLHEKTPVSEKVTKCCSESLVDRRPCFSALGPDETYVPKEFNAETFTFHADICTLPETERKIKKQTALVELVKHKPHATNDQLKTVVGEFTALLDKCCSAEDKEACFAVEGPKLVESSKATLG

On to DICLPRWGCLW-NH2 (disulfide 3-9 (inferred), synthetic; disulfide oxidised) [SA04], for which the IC50 in [1] is 787 nM; in experiment [2], 8540 nM; in experiment [3], 40 nM; in experiment [4], 8540 nM.
On to Ac-RLIEDICLPRWGCLWED-NH2 (disulfide 7-13 (inferred), synthetic) [SA22], for which the “fold improvement of IC50 over the core sequence (SA34 and SA19)” value (“fold improvement of IC50” for short) in experiment [5] was determined as 60 fold. The half-inhibitory concentration (IC50) in experiment [4] is 430 nM.
Regarding Ac-RLMEDICLPRWGCLWEDD-NH2 (disulfide 7-13 (inferred), synthetic; disulfide oxidised) [SA10], the concentration for half-maximal inhibition (IC50) in experiment [1] worked out at 77 nM; in experiment [2] it was 86 nM.
On to Ac-RLIEDICLPRWGCLWEDD-NH2 (disulfide 7-13 (inferred), synthetic; disulfide oxidised) [SA21], for which the results for the IC50 in experiment [6], in experiment [7] and in experiment [4] were 270 nM, 7 nM and 270 nM, respectively. Moreover, the Kd in [8] turned out to be 320 nM.
On to Ac-RLMEDICLARWGCLWEDD-NH2 (disulfide 7-13 (inferred), synthetic; disulfide oxidised) [SA13], for which the IC50 in experiment [1] worked out at 2480 nM; in experiment [2], 3200 nM; in experiment [3], 188 nM.
In [4], Ac-LIEDICLPRWGCLWED-NH2 (disulfide 6-12 (inferred), synthetic) [SA23] registered an IC50 of 360 nM.
Ac-RLIEDICLPRWGCL-NH2 (disulfide 7-13 (inferred), synthetic) [SA33]: in experiment [5], the “fold improvement of IC50” value is ~6 fold. In experiment [4], this molecule displayed an IC50 of 4310 nM.
As for Ac-EDICLPRWGCLWEDD-NH2 (disulfide 4-10 (inferred), synthetic; disulfide oxidised) [SA09], the half-maximal inhibitory concentration (IC50) in [1] came to 258 nM; in [2], 1690 nM; in experiment [3] it was 6 nM.

B1: SA07 (peptide)
peptide: QGLIGDICLPRWGCLWGDSV-NH2
modifications: disulfide 8-14 (inferred)
notes: synthetic; disulfide oxidised; printed ...GDSV here
In the case of B1, the 50% inhibitory concentration (IC50) was determined as 35 nM in experiment [1], 30 nM in experiment [2] and 6 nM in [3].
As to Ac-ICLPRWGCLWED-NH2 (disulfide 2-8 (inferred), synthetic) [SA27], in experiment [4], the IC50 came to 86700 nM.
Ac-QRLIEDICLPRWGCLWEDDF-NH2 (disulfide 8-14 (inferred), synthetic) [SA20]: the IC50 in [4] amounted to 260 nM.
The same measure, in the same setting: in the case of Ac-RLIEDICLPRWGCLW-NH2 (disulfide 7-13 (inferred), synthetic) [SA31] it was 200 nM; in that of DICLPRWGCL-NH2 (disulfide 3-9 (inferred), synthetic) [SA19], 24500 nM.
Consider Ac-MEDICLPRWGCLWEDD-NH2 (disulfide 5-11 (inferred), synthetic; disulfide oxidised) [SA11], for which the concentration for half-maximal inhibition (IC50) worked out at 232 nM in experiment [1], 1210 nM in experiment [2] and 17 nM in experiment [3].
Regarding Ac-RLIEDICLPRWGCLWE-NH2 (disulfide 7-13 (inferred), synthetic) [SA29], the IC50 in [4] turned out to be 400 nM.
For QRLMEDICLPRWGCLWEDDF-NH2 (disulfide 8-14, synthetic; disulfide oxidised) [SA06], the half-maximal inhibitory concentration (IC50) in experiment [6] is 130 nM; in experiment [7], 6 nM; in experiment [10] it was 68 nM; in experiment [11], 128 nM; in experiment [12], 8 nM; in experiment [1] it was 68 nM. Further, the concentration for half-maximal inhibition (IC50) in experiment [2] stood at 128 nM; in experiment [3] it was 8 nM. For the same molecule, the dissociation constant Kd in [9] stood at 229 nM; in experiment [8], 143 nM.
Turning to Ac-DICLPRWGCL-NH2 (disulfide 3-9 (inferred), synthetic) [SA34], in [4], the IC50 turned out to be 28200 nM.
With Ac-DICLPRWGCLWED-NH2 (disulfide 3-9 (inferred), synthetic) [SA26], the “fold improvement of IC50” value in experiment [5] is ~8.6 fold. Further, the IC50 in experiment [4] came to 3120 nM.
As to MEDICLPRWGCLWED-NH2 (disulfide 5-11 (inferred), synthetic; disulfide oxidised) [SA05], the half-maximal inhibitory concentration (IC50) is 161 nM in [1], 804 nM in [2] and 6 nM in experiment [3].
In turn, Ac-IEDICLPRWGCLWED-NH2 (disulfide 5-11 (inferred), synthetic) [SA24] yielded an IC50 in experiment [4] of 1380 nM.
For the molecule Ac-QGLIGDICLPRWGCLWGDSVK-NH2 (disulfide 8-14 (inferred), synthetic; disulfide oxidised) [SA08], the IC50 in experiment [7] is 12 nM; in experiment [1], 68 nM; in experiment [2], 63 nM; in experiment [3], 10 nM. For the same molecule, the dissociation constant Kd in experiment [13] came to 858 nM; in [9] it was 158 nM; in experiment [8], 108 nM.
Take Ac-EDICLPRWGCLWED-NH2 (disulfide 4-10 (inferred), synthetic) [SA25]: the IC50 in experiment [4] worked out at 2730 nM.
Still for that read-out and setting: in the case of Ac-EDICLPRWGCLW-NH2 (disulfide 4-10 (inferred), synthetic) [SA32] it was 2170 nM.
ICLPRWGCLW-NH2 (disulfide 2-8 (inferred), synthetic) [SA18] gave an IC50 in experiment [4] of 125000 nM.
For the molecule Ac-IEDICLPRWGCLWE-NH2 (disulfide 5-11 (inferred), synthetic) [SA30], in [4], the concentration for half-maximal inhibition (IC50) was 1800 nM.
DLCLRDWGCLW (not fully specified (C-terminus); cysteine pairing not given here) [RC]: in experiment [14], the binding result is listed as “binds”.
Consider GEWWEDICLPRWGCLWEEED-NH2 (disulfide 8-14 (inferred), synthetic) [SA15], for which the IC50 stood at 13 nM in experiment [6] and 5 nM in [7]. The equilibrium dissociation constant (Kd) was determined as 878 nM in experiment [13], 150 nM in experiment [9] and 65 nM in experiment [8].
As for Ac-MEDICLPRWGCLWED-NH2 (disulfide 5-11 (inferred), synthetic; disulfide oxidised) [SA12], the IC50 in [1] turned out to be 205 nM; in experiment [2] it was 1760 nM; in experiment [3], 13 nM.

One may read the IC50 as the concentration needed to halve the response being measured. A word on the Kd: it is a measure of binding affinity in units of concentration. A high value points to a looser complex.

The values are drawn from US20070202045A1 (published 2007).
